Laboratory results as given in patent publication US20250171534A1 (D2M BIOTHERAPEUTICS, published 2025).
Like-named read-outs stand apart in the source and are kept apart here.

Experiments:
[1] = molecular target: T1, human LILRB1 expressed on cells (human, UniProt Q8NHL6 24-650); test: flow cytometry, CHO-LILRB1 cells
T1 construct: In 293T cells it was expressed from pCMV3-LILRB1-GFP; also called CHO-LILRB1; Jurkat-LILRB1

[2] = molecular target: T2, LILRB1-ECD-HIS (SinoBiological Cat #: 16014-H02H) (human, UniProt Q8NHL6 24-461); test: SPR (Carterra LSA), antibody captured, antigen injected;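 also: kd obtained from kinetic analysis of antibody binding to the antigen, with association and dissociation phases fitted in the instrument software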
T2 construct: Bought protein; also called monomeric antigen LILRB1-ECD-HIS; not shown: His tag

[3] = molecular target: T3, LILRB2-ECD-HIS (SinoBiological Cat #: 14132-H02H) (human, UniProt Q8N423 22-460); test: as above
T3 construct: Bought protein; also called monomeric antigen LILRB2-ECD-HIS; not shown: His tag

[4] = molecular target: T4, human LILRB2 expressed on cells (human, UniProt Q8N423 22-597); test: flow cytometry, CHO-LILRB2 cells
T4 construct: In 293T cells it was expressed from pCMV3-LILRB2-GFP; also called CHO-LILRB2; Jurkat-LILRB2

[5] = molecular target: T1, human LILRB1 expressed on cells; test: flow cytometry, CHO-LILRB1 cells; remark: listed apart in the source
[6] = molecular target: T1, human LILRB1 expressed on cells; test: flow cytometry, CHO-LILRB1 cells; blocked ligand: APC HLA-G trimer tetramer

T2 sequence (Q8NHL6 other isoform, or with tags, fused parts or gaps H02H H02H): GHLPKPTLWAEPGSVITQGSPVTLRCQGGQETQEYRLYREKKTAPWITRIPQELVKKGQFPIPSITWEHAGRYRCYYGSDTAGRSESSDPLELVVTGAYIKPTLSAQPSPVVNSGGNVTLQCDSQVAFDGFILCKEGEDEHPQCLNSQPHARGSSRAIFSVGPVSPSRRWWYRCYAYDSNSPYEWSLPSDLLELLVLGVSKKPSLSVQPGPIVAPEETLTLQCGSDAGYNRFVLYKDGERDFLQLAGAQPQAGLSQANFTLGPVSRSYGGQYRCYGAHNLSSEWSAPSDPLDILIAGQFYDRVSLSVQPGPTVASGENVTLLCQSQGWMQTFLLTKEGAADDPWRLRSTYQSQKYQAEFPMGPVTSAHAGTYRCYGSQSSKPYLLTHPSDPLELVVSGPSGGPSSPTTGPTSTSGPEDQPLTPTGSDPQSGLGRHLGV
T3 sequence (Q8N423 other isoform, or with tags, fused parts or gaps H02H H02H): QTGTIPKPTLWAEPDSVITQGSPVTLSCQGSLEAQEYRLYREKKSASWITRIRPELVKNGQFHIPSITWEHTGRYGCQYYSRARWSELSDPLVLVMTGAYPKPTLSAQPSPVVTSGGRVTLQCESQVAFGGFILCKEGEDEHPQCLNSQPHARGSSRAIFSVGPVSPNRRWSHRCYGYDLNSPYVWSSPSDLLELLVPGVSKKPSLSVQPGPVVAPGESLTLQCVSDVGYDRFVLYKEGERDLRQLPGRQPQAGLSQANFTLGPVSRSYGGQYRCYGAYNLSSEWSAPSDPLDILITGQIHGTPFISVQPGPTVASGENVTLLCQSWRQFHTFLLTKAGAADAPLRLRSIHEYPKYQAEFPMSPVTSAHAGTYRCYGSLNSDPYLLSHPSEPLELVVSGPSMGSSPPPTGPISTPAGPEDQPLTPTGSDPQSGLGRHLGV
T1 sequence (Q8NHL6 other isoform, or with tags, fused parts or gaps limits assumed): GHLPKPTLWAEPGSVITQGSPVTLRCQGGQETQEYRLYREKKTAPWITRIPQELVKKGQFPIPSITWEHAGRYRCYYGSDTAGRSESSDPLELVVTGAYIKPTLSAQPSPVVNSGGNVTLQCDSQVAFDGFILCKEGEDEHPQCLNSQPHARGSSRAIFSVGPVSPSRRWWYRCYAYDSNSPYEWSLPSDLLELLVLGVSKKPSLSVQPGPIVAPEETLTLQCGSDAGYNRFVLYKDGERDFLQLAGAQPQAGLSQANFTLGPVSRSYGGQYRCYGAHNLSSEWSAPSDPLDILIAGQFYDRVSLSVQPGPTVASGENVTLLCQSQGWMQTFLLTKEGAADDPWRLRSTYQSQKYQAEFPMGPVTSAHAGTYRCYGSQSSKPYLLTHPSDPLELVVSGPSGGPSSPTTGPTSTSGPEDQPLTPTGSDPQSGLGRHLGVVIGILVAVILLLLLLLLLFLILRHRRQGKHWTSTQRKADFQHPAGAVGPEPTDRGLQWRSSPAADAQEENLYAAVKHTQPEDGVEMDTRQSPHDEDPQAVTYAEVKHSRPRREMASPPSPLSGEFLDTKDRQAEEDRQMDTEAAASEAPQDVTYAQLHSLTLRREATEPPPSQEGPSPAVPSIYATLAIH
T4 sequence (Q8N423 other isoform, or with tags, fused parts or gaps limits assumed): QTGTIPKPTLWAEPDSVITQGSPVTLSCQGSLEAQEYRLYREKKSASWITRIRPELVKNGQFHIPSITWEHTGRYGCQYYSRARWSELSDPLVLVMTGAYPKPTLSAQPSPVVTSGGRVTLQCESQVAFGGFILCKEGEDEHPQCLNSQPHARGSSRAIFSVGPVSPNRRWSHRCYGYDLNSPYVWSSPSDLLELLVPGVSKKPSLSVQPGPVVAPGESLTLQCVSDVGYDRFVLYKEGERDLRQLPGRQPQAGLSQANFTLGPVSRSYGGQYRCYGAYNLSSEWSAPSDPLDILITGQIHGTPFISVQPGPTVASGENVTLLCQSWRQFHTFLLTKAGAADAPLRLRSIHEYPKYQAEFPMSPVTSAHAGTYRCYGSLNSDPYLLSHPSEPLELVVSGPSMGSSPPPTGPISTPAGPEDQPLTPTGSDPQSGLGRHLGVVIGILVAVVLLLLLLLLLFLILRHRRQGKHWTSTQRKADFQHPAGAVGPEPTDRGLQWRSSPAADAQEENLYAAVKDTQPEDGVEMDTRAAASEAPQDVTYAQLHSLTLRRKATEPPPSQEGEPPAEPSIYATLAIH

EC50 [1] [µg/mL]	gMFI (max) [1]	Kd [2] [nM]	Kd [3] [nM]	EC50 [4] [µg/mL]	gMFI (max) [4]	EC50 [5] [µg/mL]	IC50 [6] [µg/mL]	Binder
		23.2	0.624					#41 (antibody, human IgG1, V domains shown, also called D2M002-041) VH: DVQLQQSGAELMKPGASVKISCKATGYTFSSSWIEWVKQRPGHGLEWIGEILPGSGNTSYNEKFKGKATFTADTSSSAAYMQLSSLTSEDSAVYYCARSGLYYDYGGFAYWGQGTLVTVSA VL: DIVLTQSPASLAVSLGQRATISCRASESVDTYGNSFMHWYQQKPGQPPKLLIYRTSNLESGIPARFSGSGSRTDFTLTINPVEADDVATYYCQQSNEDPFTFGSGTKLEIK
		20	1.26					#31 (antibody, human IgG1, V domains shown, also called D2M002-031) VH: QVQMQPFGAELMKPGASVRISCKATGYTFSSSWIEWVKQRPGHGLEWIGEILPGSGTTNYNEKFKGKATFTADTSSNTAYMQLSSLTSEDSAVYYCARSGAGGYDSGAFTYWGQGTLVTVSA VL: DIVLTQSPASLAVSLGQRATISCRASESIDTYGNSFMHWYQQKPGQPPKLLIYRASNLESGIPARFSGSGSRTDFTLTINPVEADDVATYYCQQSNEDPWTFGGGTKLEIK
		10.4	0.617					#35 (antibody, human IgG1, V domains shown, also called D2M002-035) VH: QVQLQQSGAELMKPGASVRISCKATGYTFSSSWIEWVKQRPGHGLEWIGEILPGSGSTNYNEKFKGKATFTADTSSNTAYMQLSSLTSEDSAVYYCARSGAGGYDSGAFTYWGQGTLVTVSA VL: DIVLTQSPASLAVSLGQRATISCRASESIDTYGNSFMHWYQQKPGQPPKLLIYRASNLESGIPARFSGSGSRTDFTLTINPVEADDVATYYCQQSNEDPWTFGGGTKLEIK
		28.7	1.59					#29 (antibody, human IgG1, V domains shown, also called D2M002-029) VH: EVQLQQSGAEVKKPGASVKISCKATGYTFSSYWIEWVKQRPGHGLEWIGEILPGSGSTNYNEKFKGKATFTADTSSNTAYMQLSSLTSEDFTVYYCARSGAGGYDSGAFGYWGQGTLVTVSS VL: DIVMTQSPASLAVSLGQRATISCRASESIDTYGNSFMHWYQQKPGQPPKLLIYRASNLESGIPARFSGSGSRTDFTLTINPVEADDVATYYCQQSNEDPWTFGGGTKLEIK
		3.44	0.145					#36 (antibody, human IgG1, V domains shown, also called D2M002-036) VH: QVQLQQSGAELMKPGASVRISCKATGYTFSSSWIEWVKQRPGHGLEWIGEILPGSGTTNYNEKFKGKATFTADTSSNTAYMQLSSLTSEDSAVYYCARSGAGGYDSGAFTYWGQGTLVTVSA VL: DIVLTQSPASLAVSLGQRATISCRASESIDTYGNSFMHWYQQKPGQPPKLLIYRASNLESGIPARFSGSGSRTDFTLTINPVEADDVATYYCQQSNEDPWTFGGGTKLEIK
		34.4	3.05					#40 (antibody, human IgG1, V domains shown, also called D2M002-040) VH: EVQLQQSGAELMKPGASVKISCKTTGNTFSSYWIEWVKQRPGHDLEWIGEILPGRGSTNNNEKFKGKAPFTADTSSNTAYMQLNSLTSEDSAVYYCARSGGGGYDSGAFAYWGQGTLVTVSA VL: DIVLTQSPASLAVSLGQRATISCRASESVDTYGNSFMHWYQQKPGQPPKLLIYRTSNLESGIPARFSGSGSRTDFTLTINPVEADDVATYYCQQSNEDPWTFGGGTKLEIK

More lines, now with the values behind:

Binder	EC50 [1] [µg/mL]	gMFI (max) [1]	Kd [2] [nM]	Kd [3] [nM]	EC50 [4] [µg/mL]	gMFI (max) [4]	EC50 [5] [µg/mL]	IC50 [6] [µg/mL]
#21 (antibody, human IgG1, V domains shown, also called D2M002-021) VH: QVQLQQSGAELMKPGASVKISCKATGSTFSSYWIEWVKQRPGHGLEWIGEILPGSGSTNYNEKFKGKATFTADTSSNTAYMQLSSLTSEDSAVYYCARSGAGGYDSGAFAYWGQGTLVTVSA VL: DIVLTQSPASLAVSLGQRATISCRASESVDTYGNSFMHWYQQKPGQPPKLLIYRTSNLESGIPARFSGSGSRTDFTLTINPVEADDVATYYCQQSNEDPWTFGGGTKLEIK	2.35	50600	0.667	0.1	0.894	25600		
#16 (antibody, human IgG1, V domains shown, also called D2M002-016) VH: EVQLQQSGAELMKPGASVKISCKATGNTFSSYWIEWVKQRPGHDLEWIGEILPGSGSTNYNEKFKGKATFTADTSSNTAYMQLNSLTSEDSAVYYCARSGAGGYDSGAFAYWGQGTLVTVSA VL: DIEMTQSPASLAVSLGQRATISCRASESIDSYGNSFMHWYQQKPGQPPKLLIYRTSNLESGIPARFSGSGSRTDFTLTINPVEADDVATYYCQQSNEDPWTFGGGTKLEIK			0.714	0.0385			2.66	1.18
#12 (antibody, human IgG1, V domains shown, also called D2M002-012) VH: QIQLLQSGAELMKPGASVKISCKATGYTFSNYWIEWVKQRPGHGLEWIGEILPGSGSTNYNEKFKGKATFTADTSSNTAYMQLSSLTSEDSAVYYCARSGAGGYDSGAFAYWGQGTLVTVSS VL: DIVLTQSPASLAVSLGQRATISCRASESVDSYGNSFMHWYQQKPGQPPKLLIYRTSNLESGIPARFSGSGSRTDFTLTINPVEADDVAAYYCQQSNEDPWTFGGGTKLEIK			1.6	0.2				
#23 (antibody, human IgG1, V domains shown, also called D2M002-023) VH: QVQMQQPGAELMKPGASVKISCKATGYTFSRYWIEWVKQRPGHGLEWIGEILPGDGSTNYNAKFKGQATFTADTSSNTAYMQFSSLTYEDSAVYYCARSGAGGYDSGAFAYWGQGTLVTVSS VL: DIVLTQSPASLAVSLGQRATISCRASESVDTYGNSFMHWYQQKPGQPPKLLIYRTSNLESGIPARFSGSGSRTDFTLTINPVEADDVATYYCQQSNEDPWTFGGGTKLEIK			7.65	0.636				
#8 (antibody, human IgG1, V domains shown, also called D2M002-008) VH: EVQLQQPGAELMKPGASVKISCKATGYTFSSSWTEWVKQRPGHGLEWIGEILPGSGSTNYNEKFKGKATFTADTSSNTAYMQLSSLTSEDSAVYYCARSGAGGYDSGAFAYWGQGTLVTVSA VL: DIVLTQSPASLAVSLGQRATISCRASESIDTYGNSFMHWYQQKPGQPPKLLIYRTSNLESGIPARFSGSGSRTDFTLTINPVEADDVATYYCQQSNEDPWTFGGGTKLEIK	1.08	46500	0.64	0.191	0.565	24800	0.768	0.26
#28 (antibody, human IgG1, V domains shown, also called D2M002-028) VH: EVQLQQSGAELMKPGASVKISCKATGYTFSSYWIEWVKQRPGHGLEWIGEILPGSGSTNYNEKFKGKATFTADTSSNTAYMQLSSLTSEDSAVYYCARSGAGGYDSGAFAYWGQGTLVTVSS VL: DIVMTQSPASLAVSLGQRATISCRASESVDTYGNSFMHWYQQKPGQPPKLLIYRTSNLESGIPARFSGSGSRTDFTLTINPVEADDVATYYCQQSNEDPWTFGGGTKLEIK	1.83	40300	0.882	0.0385	0.836	26600		
#20 (antibody, human IgG1, V domains shown, also called D2M002-020) VH: QVQFQQSGVELMKPGASVKISCKATGNTFSNYWIEWVKQRPGHDLEWIGEILPGSGSTNYNEKFKGKATFTADTSSNTAYMQLNSLTSEDSAVYYCARSGAGGYDSGAFAYWGQGTLVTVSA VL: DIVMTQSPASLAVSLGQRATISCRASESVDSYGNSFMHWYQQKPGQPPKLLIYRTSNLESGIPARFSGSGSRTDFTLTINPVEADDVATYYCQQSNEDPWTFGGGTKLEIK			1.19	0.2				
#18 (antibody, human IgG1, V domains shown, also called D2M002-018) VH: EVQLQQSGAELMKPGASVKISCKTTGNTFSSYWIEWVKQRPGHDLEWIGEILPGSGSTNYNEKFKGKATFTADTSSNTAYMQLNSLTSEDSAVYYCARSGAGGYDSGAFAYWGQGTLVTVSA VL: DIVLTQSPASLAVSLGQRATISCRASESVDSYGNSFMHWYQQKPGQPPKLLIYRTSNLESGIPARFSGSGSRTDFTLTINPVEADDVATYYCQQSNEDPWTFGGGTKLEIK			1.36	0.0526				
#11 (antibody, human IgG1, V domains shown, also called D2M002-011) VH: EVQLQQSGAELMKPGASVKISCKATGYTFSNYWIEWVKQRPGHGLEWIGEILPGSGSTDYNEKFEGKATFTADTSSNTAYMQLSSLTSEDSAVYYCARSGAGGYDSGAFAYWGQGTLVTVSA VL: DIQMTQSPASLAVSLGQRATISCRASESVDTYGNSFMHWYQQKPGQPPKLLIYRTSNLESGIPARFSGSGSRTDFTLTINPVEADDVATYYCQQSNEDPWTFGGGTKLEIK	1.46	40000	0.417	0.0213	1.2	21600	1.13	0.367
#17 (antibody, human IgG1, V domains shown, also called D2M002-017) VH: EVQLQQSGAELMKPGASVKISCKTTGNTFSSYWIEWVKQRPGHDLEWIGEILPGSGSSNYNEKFKGKATFTADTSSNTAYMQLNSLTSEDSAVYYCARSGAGGYDSGAFAYWGQGTLVTVSA VL: DIVLTQSPASLAVSLGQRATISCRASESVDSYGNSFMHWYQQKPGQPPKLLIYRTSNLESGIPSRFSGSGSRTDFTLTINPVEADDVATYYCQQSNEDPWTFGGGTKLEIK			1.18	0.0476				
#3 (antibody, human IgG1, V domains shown, also called D2M002-003) VH: QIQLLQSGPELVKPGASVKMSCKASGYTFTRYVMYWVKQKPGQGLEWIGYINPDNDGTKYNEKFKGKATLTSDKSSSTAYMELSSLTSEDSAVYYCARGDLELLPYYDYVRNAMDYWGQGTSVTVSS VL: DIQMTQSPASLSASVGETVTITCRASGNIHNYLAWYQQKQGKSPQLLVYNAKTLADGVPSRFSGSGSGTQYSLKINSLQPEDFGSYYCQHFWSTPPTFGGGTKLEIK	0.264	29900	57.1	0.542	0.058	18500		
